This note sets out measurements from patent US20250092426, “CAS ENDONUCLEASES AND RELATED METHODS” (Flagship Pioneering Innovations VII, LLC, published 2025).

The target of the series is T1, CasEnd-16 (synthetic construct).
T1 chain: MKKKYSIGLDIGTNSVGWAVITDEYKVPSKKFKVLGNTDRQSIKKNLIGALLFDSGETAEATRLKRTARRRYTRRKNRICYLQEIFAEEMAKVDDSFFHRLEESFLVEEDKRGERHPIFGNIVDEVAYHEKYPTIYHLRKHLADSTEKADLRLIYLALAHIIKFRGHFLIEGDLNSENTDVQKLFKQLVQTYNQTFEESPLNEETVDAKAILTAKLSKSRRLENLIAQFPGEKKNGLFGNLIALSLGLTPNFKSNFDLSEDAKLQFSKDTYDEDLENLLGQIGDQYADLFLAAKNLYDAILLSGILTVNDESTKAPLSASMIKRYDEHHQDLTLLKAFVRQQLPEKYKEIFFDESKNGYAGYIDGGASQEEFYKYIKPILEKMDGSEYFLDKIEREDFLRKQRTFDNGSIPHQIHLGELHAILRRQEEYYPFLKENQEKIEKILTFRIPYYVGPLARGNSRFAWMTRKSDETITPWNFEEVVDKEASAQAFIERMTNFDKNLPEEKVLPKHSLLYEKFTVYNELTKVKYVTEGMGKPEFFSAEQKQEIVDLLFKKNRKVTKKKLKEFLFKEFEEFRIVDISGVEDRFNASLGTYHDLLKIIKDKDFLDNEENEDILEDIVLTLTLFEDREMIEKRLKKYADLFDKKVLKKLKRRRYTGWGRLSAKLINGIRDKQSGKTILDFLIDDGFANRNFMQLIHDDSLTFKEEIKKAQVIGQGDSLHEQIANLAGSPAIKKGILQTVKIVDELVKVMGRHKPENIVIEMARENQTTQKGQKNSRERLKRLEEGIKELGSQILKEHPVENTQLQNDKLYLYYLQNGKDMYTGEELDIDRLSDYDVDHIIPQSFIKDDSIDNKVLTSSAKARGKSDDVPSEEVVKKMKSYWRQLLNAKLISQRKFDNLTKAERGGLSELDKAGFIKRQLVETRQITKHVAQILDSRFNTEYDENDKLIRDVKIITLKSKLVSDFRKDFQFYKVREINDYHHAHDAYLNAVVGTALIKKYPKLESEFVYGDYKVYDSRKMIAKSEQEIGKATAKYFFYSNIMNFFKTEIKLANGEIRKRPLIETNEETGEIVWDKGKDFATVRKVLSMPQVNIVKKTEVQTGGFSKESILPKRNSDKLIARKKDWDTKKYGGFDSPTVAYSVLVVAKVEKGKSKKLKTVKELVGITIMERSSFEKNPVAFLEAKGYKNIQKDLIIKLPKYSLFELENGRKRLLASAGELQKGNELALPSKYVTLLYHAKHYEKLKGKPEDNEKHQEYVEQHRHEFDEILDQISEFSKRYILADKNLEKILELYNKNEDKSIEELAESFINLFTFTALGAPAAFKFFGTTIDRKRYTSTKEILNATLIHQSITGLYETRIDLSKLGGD
Description: cell_activity; +++; HEK293T; PAM not stated. Summed up: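 BFP-to-GFP conversion via reverse transcriptase fusion with each Cas endonuclease plus template RNA: 200 ng of each plasmid nucleofected into 250,000 BFP-expressing HEK293T cells (program DS-150). Percent GFP+ cells by flow cytometry at day 4 measured editing.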

Bounds are passed on as bounds.

B1: BFP-to-GFP template RNA ; BFP reporter protospacer (ssRNA ; dsDNA)
RNA: GCCGAAGCACUGCACGCCGUGUUUUAGAGCUAGAAAUAGCAAGUUAAAAUAAGGCUAGUCCGUUAUCAACUUGAAAAAGUGGCACCGAGUCGGUGCACCCUGACGUACGGCGUGCAGUGCUU
DNA 1: GCCGAAGCACTGCACGCCGT
DNA 2: ACGGCGTGCAGTGCTTCGGC
Regarding B1, the activity was ≥ 100 % of reference.
